In article doi:10.1101/2021.09.12.459968:
Several values for one entry are separate records, joined by “and”; a condition that tells them apart may be missing. Identical values can stand only once.

How the values were obtained:
[1] = biological target: T1, full-length mouse NLRP3 (FLAG-mScarlet tag removed), double ring cage (mouse), Q8R4B8; assay: cryo-EM structure; details: remark: other sources report otherwise
T1 chain: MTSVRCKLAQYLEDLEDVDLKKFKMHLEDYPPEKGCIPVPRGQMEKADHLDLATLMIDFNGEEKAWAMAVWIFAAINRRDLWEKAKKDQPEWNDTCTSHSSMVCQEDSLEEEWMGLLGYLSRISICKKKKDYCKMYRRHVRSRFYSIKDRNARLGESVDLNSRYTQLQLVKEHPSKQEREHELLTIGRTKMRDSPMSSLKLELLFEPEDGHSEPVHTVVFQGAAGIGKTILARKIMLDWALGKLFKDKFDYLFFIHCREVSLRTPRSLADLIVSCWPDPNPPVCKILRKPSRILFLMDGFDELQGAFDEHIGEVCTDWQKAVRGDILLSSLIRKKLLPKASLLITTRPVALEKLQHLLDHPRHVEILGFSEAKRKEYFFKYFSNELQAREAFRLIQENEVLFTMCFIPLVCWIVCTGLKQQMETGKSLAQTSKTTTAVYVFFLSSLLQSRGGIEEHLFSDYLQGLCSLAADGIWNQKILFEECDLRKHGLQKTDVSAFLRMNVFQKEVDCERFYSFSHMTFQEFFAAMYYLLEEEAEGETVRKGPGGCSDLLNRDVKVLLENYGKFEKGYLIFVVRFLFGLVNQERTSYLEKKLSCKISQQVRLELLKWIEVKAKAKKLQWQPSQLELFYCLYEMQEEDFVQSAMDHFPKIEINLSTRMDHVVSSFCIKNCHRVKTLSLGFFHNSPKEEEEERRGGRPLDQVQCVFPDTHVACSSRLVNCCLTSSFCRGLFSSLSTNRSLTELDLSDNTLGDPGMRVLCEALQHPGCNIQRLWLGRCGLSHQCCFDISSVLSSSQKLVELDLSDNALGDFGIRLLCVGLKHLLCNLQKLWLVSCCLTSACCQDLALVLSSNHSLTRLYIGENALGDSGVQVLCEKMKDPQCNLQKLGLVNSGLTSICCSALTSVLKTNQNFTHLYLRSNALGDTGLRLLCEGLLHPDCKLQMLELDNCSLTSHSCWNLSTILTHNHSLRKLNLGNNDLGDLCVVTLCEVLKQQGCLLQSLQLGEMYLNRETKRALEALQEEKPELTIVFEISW

[2] = biological target: T1, full-length mouse NLRP3 (FLAG-mScarlet …); assay: cryo-EM structure; details: remark: other sources report otherwise

B1: full-length mouse NLRP3 (FLAG-mScarlet tag removed), double ring cage, Q8R4B8 1-1033 (natural protein)
chain: T1 chain
Q: Which results are given for B1?
A: stoichiometry N [1]: 12; stoichiometry N [2]: 12 and 14 and 16
